Experimental data taken from the supplement of paper PMC7877785.
± gives the uncertainty stated by the source.

Assay: self-splicing fitness, log relative to wild type (ln ratio); higher = more splicing; Tetrahymena group I intron in knt gene, E. coli kanamycin selection, DiMSum; sequences stand for … in CUCUCU…GGAGGGAAAAGUUAUCAGGCAUGCACCUGGUAGCUAGUCUUUAAACCAAUAGAUUGCAUCGGUUUAAAAGGCAAGACCGUCAAAUUGCGGGAAAGGGGUCAACAGCCGUUCAGUACCAAGUCUCAGGGGAAACUUUGAGAUGGCCUUGCAAAGGGUAUGGUAAUAAGCUGACGGACAUGGUCCUAACCACGCAGCCAAGUCCUAAGUCAACAGAUCUUCUGUUGAUAUGGAUGCAGUUCACAGACUAAAUGUCGGUCGGGGAAGAUGUAUUCUUCUCAUAAGAUAUAGUCGGACCUCUCCUUAAUGGGAGCUAGCGGAUGAAGUGAUGCAACACUGGAGCCGCUGGGAACUAAUUUGUAUGCGAAAGUAUAUUGAUUAGUUUUGGAGUACUCGUGGUCG
Outline: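 Library with all eight P1ex-region intron nucleotides randomised, intron inside the knt kanamycin-resistance gene on pET-22b(+), in E. coli BL21(DE3). Cells grew overnight at 37°C or 30°C on LB agar with or without 25 μg/mL kanamycin (plus 100 μg/mL carbenicillin, 50 μM IPTG, 0.2% rhamnose), in six replicate transformations. Pooled colonies were amplicon-sequenced on Illumina HiSeq 2500. DiMSum fitness is the error-weighted combination of wild-type-normalised replicate fold changes, kanamycin versus none.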

Sequence	self-splicing fitness (ln) (30 °C)	self-splicing fitness (ln) (37 °C)
AUUCAGCAAUAUUACGAAUG	-1.54 ± 0.11	-0.673 ± 0.13
ACGAAGCAAUAUUACGGAGA	-2.86 ± 0.2	-2.42 ± 0.22
UACCAGCAAUAUUACGGGUC	-2.46 ± 0.13	-1.99 ± 0.18
GAGGAGCAAUAUUACGAAUU	-3.43 ± 0.3	–
GACUAGCAAUAUUACGGUCA	-1.13 ± 0.27	-1.36 ± 0.26
CUAGAGCAAUAUUACGGAUC	-3.28 ± 0.15	-3.06 ± 0.4
UUGAAGCAAUAUUACGGGGG	-2.59 ± 0.17	-1.9 ± 0.19
UACAAGCAAUAUUACGCCCC	-2.04 ± 0.49	–
ACAAAGCAAUAUUACGACAU	-0.488 ± 0.011	0.0402 ± 0.032
CUGGAGCAAUAUUACGCCGU	-2.44 ± 0.4	-1.06 ± 0.38
ACUCAGCAAUAUUACGGCAU	-0.665 ± 0.063	-0.293 ± 0.067
GUCUAGCAAUAUUACGCGCA	-0.481 ± 0.098	0.157 ± 0.087
ACGGAGCAAUAUUACGGCUC	-3.6 ± 0.3	-2.87 ± 0.48
UACCAGCAAUAUUACGGAUC	-1.46 ± 0.058	0.242 ± 0.084
UUAGAGCAAUAUUACGCUGG	-1.75 ± 0.11	-0.227 ± 0.18
UUCAAGCAAUAUUACGUGCA	-0.545 ± 0.047	-0.00601 ± 0.065
CCGGAGCAAUAUUACGCCCG	-1.86 ± 0.41	–
CCCAAGCAAUAUUACGUAUU	-3.8 ± 0.16	-2.7 ± 0.17
UGAAAGCAAUAUUACGCUGU	-3.67 ± 0.19	-1.73 ± 0.17
UCAAAGCAAUAUUACGUGUU	-3.06 ± 0.1	-2.8 ± 0.14
CCUUAGCAAUAUUACGCGAC	-3.16 ± 0.26	-2.12 ± 0.28
UAUAAGCAAUAUUACGGAGG	-2.6 ± 0.28	-1.67 ± 0.19
GUGAAGCAAUAUUACGACGU	0.815 ± 0.1	0.675 ± 0.1
AACCAGCAAUAUUACGAAGC	-3.37 ± 0.13	-0.929 ± 0.099
CGUAAGCAAUAUUACGUUGA	-3.23 ± 0.19	-2.58 ± 0.18
CCCGAGCAAUAUUACGGUUU	-3.14 ± 0.11	-1.96 ± 0.12

Sequence	self-splicing fitness (ln) (30 °C)	self-splicing fitness (ln) (37 °C)
CUCUAGCAAUAUUACGUGAU	-3.45 ± 0.15	-3.92 ± 0.24
GGUGAGCAAUAUUACGCGCA	-0.814 ± 0.21	-0.146 ± 0.21
ACUGAGCAAUAUUACGCGAG	-2.27 ± 0.1	-1.11 ± 0.096
CUCCAGCAAUAUUACGGAAA	-2.25 ± 0.13	-1.55 ± 0.12
CGCGAGCAAUAUUACGGAUC	-2.62 ± 0.23	-2.28 ± 0.25
AGUGAGCAAUAUUACGGCUC	-4.11 ± 0.26	-2.03 ± 0.2
UGGAAGCAAUAUUACGGAAA	-1.8 ± 0.41	-1.43 ± 0.4
CCCAAGCAAUAUUACGUUGC	-3.18 ± 0.25	-2.16 ± 0.21
GUCUAGCAAUAUUACGGAGG	-3.98 ± 0.3	-1.59 ± 0.18
AUGCAGCAAUAUUACGUCCU	0.0695 ± 0.095	0.786 ± 0.11
ACAGAGCAAUAUUACGCAGC	–	-2.25 ± 0.33
ACUGAGCAAUAUUACGGUAA	-2.81 ± 0.27	-2.8 ± 0.34
UACAAGCAAUAUUACGACAG	-1.15 ± 0.092	-0.241 ± 0.11
GAUAAGCAAUAUUACGGUGU	-2.61 ± 0.12	-1.59 ± 0.11
CAUUAGCAAUAUUACGAUUC	-2.1 ± 0.18	-0.901 ± 0.17
GUCUAGCAAUAUUACGCCCG	-0.678 ± 0.27	-0.293 ± 0.34
GGCUAGCAAUAUUACGGCUU	-1.31 ± 0.17	0.197 ± 0.21
CAUUAGCAAUAUUACGUCAU	-4.39 ± 0.3	-2.48 ± 0.21
UGAUAGCAAUAUUACGAUCG	-0.236 ± 0.14	-0.942 ± 0.15
CGACAGCAAUAUUACGUUCA	-0.308 ± 0.054	0.198 ± 0.087
CCAAAGCAAUAUUACGUGGC	-1.62 ± 0.098	-2.29 ± 0.21
GAUUAGCAAUAUUACGGGGC	-3.62 ± 0.49	-2.97 ± 0.3
ACUAAGCAAUAUUACGACGC	-0.258 ± 0.11	-0.0244 ± 0.12
AGAGAGCAAUAUUACGGCCC	-1.82 ± 0.28	-1.71 ± 0.48
GAGAAGCAAUAUUACGGACU	-0.326 ± 0.091	-0.101 ± 0.11
GCUUAGCAAUAUUACGGGCA	-2.24 ± 0.27	-0.778 ± 0.19

Sequence	self-splicing fitness (ln) (30 °C)	self-splicing fitness (ln) (37 °C)
CUAUAGCAAUAUUACGGGUU	-3.13 ± 0.23	-1.38 ± 0.19
CCUGAGCAAUAUUACGGUCG	-3.95 ± 0.19	-2.97 ± 0.19
CGUCAGCAAUAUUACGCGAU	-3.23 ± 0.29	-1.76 ± 0.42
AGUCAGCAAUAUUACGACAG	-0.781 ± 0.12	-0.399 ± 0.14
UGUUAGCAAUAUUACGCUCA	0.179 ± 0.19	-0.292 ± 0.18
UAUAAGCAAUAUUACGCUAG	-2 ± 0.18	-0.688 ± 0.23
GCGGAGCAAUAUUACGUAAU	-1.52 ± 0.15	-1.73 ± 0.24
CACAAGCAAUAUUACGUGCG	-2.32 ± 0.098	-0.908 ± 0.082
AUACAGCAAUAUUACGUGUG	-1.73 ± 0.051	-0.977 ± 0.062
UGUGAGCAAUAUUACGAAAU	-3.01 ± 0.18	-3.22 ± 0.35
CUGUAGCAAUAUUACGAACU	-2.78 ± 0.26	–
CUAAAGCAAUAUUACGCAAU	-3.94 ± 0.21	-2.97 ± 0.24
UUGGAGCAAUAUUACGGGUC	-3.74 ± 0.34	–
CGGGAGCAAUAUUACGGGGG	-2.37 ± 0.3	–
GAAUAGCAAUAUUACGUCCG	-1.39 ± 0.15	-1.33 ± 0.22
CUAAAGCAAUAUUACGGUAA	-3.53 ± 0.15	-2.36 ± 0.18
ACAUAGCAAUAUUACGGGUG	-1.25 ± 0.046	-0.515 ± 0.064
AUUGAGCAAUAUUACGCUGA	-3.1 ± 0.36	-2.27 ± 0.29
CUGCAGCAAUAUUACGUGUU	-4.86 ± 0.31	-2.28 ± 0.19
UGUAAGCAAUAUUACGUGAG	-1.07 ± 0.047	-0.92 ± 0.077
ACCUAGCAAUAUUACGACGC	-0.289 ± 0.11	0.164 ± 0.12
CAGAAGCAAUAUUACGCACA	-1.56 ± 0.077	-0.438 ± 0.087
GGUCAGCAAUAUUACGCAGU	-1.33 ± 0.11	-0.639 ± 0.13
UGUCAGCAAUAUUACGCUAU	-1.83 ± 0.11	-1.3 ± 0.12
GCCGAGCAAUAUUACGCGUU	-1.62 ± 0.076	-0.778 ± 0.095
CAAAAGCAAUAUUACGAUUU	-1.18 ± 0.061	-0.732 ± 0.075
